Assay results taken from FireProtDB (doi:10.1073/pnas.0908565107).

B1: Alanine--glyoxylate aminotransferase, P21549 (parent)
chain: MASHKLLVTPPKALLKPLSIPNQLLLGPGPSNLPPRIMAAGGLQMIGSMSKDMYQIMDEIKEGIQYVFQTRNPLTLVISGSGHCALEAALVNVLEPGDSFLVGANGIWGQRAVDIGERIGARVHPMTKDPGGHYTLQEVEEGLAQHKPVLLFLTHGESSTGVLQPLDGFGELCHRYKCLLLVDSVASLGGTPLYMDRQGIDILYSGSQKALNAPPGTSLISFSDKAKKKMYSRKTKPFSFYLDIKWLANFWGCDDQPRMYHHTIPVISLYSLRESLALIAEQGLENSWRQHREAAAYLHGRLQALGLQLFVKDPALRLPTVTTVAVPAGYDWRDIVSYVIDHFDIEIMGGLGPSTGKVLRIGLLGCNATRENVDRVTEALRAALQHCPKKKL

Variants of: B1
Conditions: Homo sapiens; pH 7.4; Thermal; DSC; Potassium phosphate 100 mM; structure 1H0C; whole UniProt chain shown
For G41V, the Tm was 58.3 °C and the “change of melting temperature, mutant - wild type (higher = more stable)” value was -4.1 °C.
